According to PMC4417188, “Molecular crowding enhances facilitated diffusion of two human DNA glycosylases”:

B1: DN nonspecific 15mer duplex (dsDNA)
DNA 1: AGGCGCATAGTCGCA
DNA 2: TGCGACTATGCGCCT

What was measured:
hUNG catalytic domain [1] = molecular target: T1, hUNG catalytic domain (Homo sapiens, UniProt P13051 94-313); assay: stopped-flow 2-AP fluorescence (koff/kon); conditions: 2'-beta-fluoro-2'-deoxyuridine (Ubeta), 2-aminopurine adjacent, paired with T, 20 mM HEPES pH 7.5, 3 mM EDTA, 1 mM DTT, 0.002% Brij 35, 22 mM total Na+, with or without PEG 8K, temperature not stated for binding assays
hUNG catalytic domain [2] = molecular target: T1, hUNG catalytic domain; assay: fluorescence anisotropy; 20% PEG 8K; 20 mM HEPES pH 7.5, 3 mM EDTA, 1 mM DTT, 0.002% Brij 35, 22 mM total Na+; with or without PEG 8K; temperature not stated for binding assays; conditions: protein: recombinant; label: 5'-fluorescein (FAM); (complement implied by Watson-Crick pairing)
hUNG catalytic domain [3] = molecular target: T1, hUNG catalytic domain; assay: fluorescence anisotropy; dilute buffer; 20 mM HEPES pH 7.5, 3 mM EDTA, 1 mM DTT, 0.002% Brij 35, 22 mM total Na+; with or without PEG 8K; temperature not stated for binding assays; conditions: protein: recombinant; label: 5'-fluorescein (FAM); (complement implied by Watson-Crick pairing)

T1 sequence (P13051 94-313): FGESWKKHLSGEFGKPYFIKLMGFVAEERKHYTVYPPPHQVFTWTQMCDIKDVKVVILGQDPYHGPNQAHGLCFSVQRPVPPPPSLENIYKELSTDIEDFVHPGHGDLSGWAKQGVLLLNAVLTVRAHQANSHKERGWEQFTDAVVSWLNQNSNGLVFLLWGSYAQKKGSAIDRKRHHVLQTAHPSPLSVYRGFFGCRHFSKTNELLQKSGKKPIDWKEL

Molecule	Kd (hUNG catalytic domain [1]; 5% PEG 8K) [nM]	Kd (hUNG catalytic domain [1]; 10% PEG 8K) [nM]	Kd (hUNG catalytic domain [1]; 15% PEG 8K) [nM]	Kd (hUNG catalytic domain [1]; 20% PEG 8K, fast phase koff used) [nM]	Kd (hUNG catalytic domain [1]; dilute buffer, text of Methods gives 0.3 nM) [nM]	Kd (hUNG catalytic domain [2]) [nM]	Kd (hUNG catalytic domain [3]) [nM]
DS specific 19mer duplex (2-AP next to Ubeta)	0.31	0.2	0.7	1.2	0.4		
B1						2300 ± 500	1300 ± 500
